Laboratory results published in PMC9576733, “Cryo-EM structures of the translocational binary toxin complex CDTa-bound CDTb-pore from Clostridioides difficile” (Nature Communications, 2022).
Where “and” joins values, the source holds several entries; their conditions need not be identical. Equal entries are not always repeated.

Legend:
[1] = molecular target: CDTb-pore, wild type (chymotrypsin-activated CDTb oligomer) (Clostridioides difficile) (UniProt O32739); assay: SPR; CDTb-pore (WT, PSS, SPS) amine-coupled on SPRi-Biochip CS-HD, CDTa injected; room temperature, 50 uL/min; pH 5.5, 10 mM MES, 0.15 M NaCl, 1 mM EGTA, 0.005% Surfactant P20, 5 mM CaCl2; 1:1 model; average of two measurements
[2] = molecular target: CDTb-pore, wild type (chymotrypsin-activated CDTb oligomer) (Clostridioides difficile) (UniProt O32739); assay: cryo-EM structure; CDTa without His-tag added to purified WT CDTb-pore at 3-fold molar excess, unbound CDTa not removed; 10 mM HEPES pH 7.5, 1 mM CaCl2, 0.003% LMNG; classes: di-heptamer, long pore, short pore
[3] = molecular target: CDTb-pore PSS-loop mutant (NSS > PSS) (Clostridioides difficile) (UniProt O32739); assay: SPR; CDTb-pore (WT, PSS, SPS) amine-coupled on SPRi-Biochip CS-HD, CDTa injected; room temperature, 50 uL/min; pH 5.5, 10 mM MES, 0.15 M NaCl, 1 mM EGTA, 0.005% Surfactant P20, 5 mM CaCl2; 1:1 model; average of two measurements
[4] = molecular target: CDTb-pore SPS-loop mutant (NSS > SPS) (Clostridioides difficile) (UniProt O32739); assay: as above
[5] = molecular target: CDTb-pore PSS-loop mutant (NSS > PSS) (Clostridioides difficile) (UniProt O32739); assay: SPR; CDTb-pore (WT, PSS, SPS) amine-coupled on SPRi-Biochip CS-HD, CDTa injected; room temperature, 50 uL/min; pH 5.5, 10 mM MES, 0.15 M NaCl, 1 mM EGTA, 0.005% Surfactant P20 (no calcium); 1:1 model; average of two measurements
[6] = molecular target: CDTb-pore SPS-loop mutant (NSS > SPS) (Clostridioides difficile) (UniProt O32739); assay: as above
[7] = molecular target: CDTb-pore, wild type (chymotrypsin-activated CDTb oligomer) (Clostridioides difficile) (UniProt O32739); assay: as above
[8] = molecular target: CDTb-pore PSS-loop mutant (NSS > PSS) (Clostridioides difficile) (UniProt O32739); assay: SPR; CDTb-pore (WT, PSS, SPS) amine-coupled on SPRi-Biochip CS-HD, CDTa injected; room temperature, 50 uL/min; pH 7.4, 10 mM HEPES, 0.15 M NaCl, 1 mM EGTA, 0.005% Surfactant P20, 5 mM CaCl2; 1:1 model; average of two measurements
[9] = molecular target: CDTb-pore SPS-loop mutant (NSS > SPS) (Clostridioides difficile) (UniProt O32739); assay: as above
[10] = molecular target: CDTb-pore, wild type (chymotrypsin-activated CDTb oligomer) (Clostridioides difficile) (UniProt O32739); assay: as above
[11] = molecular target: CDTb-pore PSS-loop mutant (NSS > PSS) (Clostridioides difficile) (UniProt O32739); assay: SPR; CDTb-pore (WT, PSS, SPS) amine-coupled on SPRi-Biochip CS-HD, CDTa injected; room temperature, 50 uL/min; pH 7.4, 10 mM HEPES, 0.15 M NaCl, 1 mM EGTA, 0.005% Surfactant P20 (no calcium); 1:1 model; average of two measurements
[12] = molecular target: CDTb-pore SPS-loop mutant (NSS > SPS) (Clostridioides difficile) (UniProt O32739); assay: as above
[13] = molecular target: CDTb-pore, wild type (chymotrypsin-activated CDTb oligomer) (Clostridioides difficile) (UniProt O32739); assay: as above
[14] = molecular target: the molecule itself; assay: density gradient ultracentrifugation; CDTb after alpha-chymotrypsin, 0.03% LMNG 1 h 37 °C (LMNG after or before chymotrypsin); 10-30% glycerol, 50 mM HEPES pH 7.5, 100 mM NaCl, 1 mM CaCl2, 0.003% LMNG, 230,139 x g 16 h; A280 of fractions; protomers to heptamer and heptamer to di-heptamer

CDTa (enzymatic A-component of the Clostridioides difficile binary toxin CDT) (CDTa injected)
kon [1]: 152000 M⁻¹ s⁻¹

CDTa (enzymatic A-component of the Clostridioides difficile binary toxin CDT) (enzyme)
stoichiometry N [2]: 1 | Kd [3]: 2.29 nM | koff [3]: 0.000376 s⁻¹ | kon [3]: 164000 M⁻¹ s⁻¹ | Kd [4]: 2.69 nM | koff [4]: 0.000326 s⁻¹ | kon [4]: 121000 M⁻¹ s⁻¹ | Kd [1]: 2.86 nM | koff [1]: 0.000436 s⁻¹ | Kd [5]: 2.27 nM | koff [5]: 0.00132 s⁻¹ | kon [5]: 584000 M⁻¹ s⁻¹ | Kd [6]: 1.61 nM | koff [6]: 0.000709 s⁻¹ | kon [6]: 441000 M⁻¹ s⁻¹ | Kd [7]: 1.53 nM | koff [7]: 0.000763 s⁻¹ | kon [7]: 498000 M⁻¹ s⁻¹ | Kd [8]: 4.93 nM | koff [8]: 0.00108 s⁻¹ | kon [8]: 220000 M⁻¹ s⁻¹ | Kd [9]: 1.89 nM | koff [9]: 0.000521 s⁻¹ | kon [9]: 276000 M⁻¹ s⁻¹ | Kd [10]: 3.27 nM | koff [10]: 0.000619 s⁻¹ | kon [10]: 189000 M⁻¹ s⁻¹ | Kd [11]: 55.1 nM | koff [11]: 0.00567 s⁻¹ | kon [11]: 103000 M⁻¹ s⁻¹ | Kd [12]: 26.2 nM | koff [12]: 0.00304 s⁻¹ | kon [12]: 116000 M⁻¹ s⁻¹ | Kd [13]: 28.6 nM | koff [13]: 0.00413 s⁻¹ | kon [13]: 144000 M⁻¹ s⁻¹

B1: CDTb-pore, wild type (chymotrypsin-activated CDTb oligomer) (complex)
chain: WEDEDLDTDNDNIPDSYERNGYTIKDLIAVKWEDSFAEQGYKKYVSNYLESNTAGDPYTDYEKASGSFDKAIKTEARDPLVAAYPIVGVGMEKLIISTNEHASTDQGKTVSRATTNSKTESNTAGVSVNVGYQNGFTANVTTNYSHTTDNSTAVQDSNGESWNTGLSINKGESAYINANVRYYNTGTAPMYKVTPTTNLVLDGDTLSTIKAQENQIGNNLSPGDTYPKKGLSPLALNTMDQFSSRLIPINYDQLKKLDAGKQIKLETTQVSGNFGTKNSSGQIVTEGNSWSDYISQIDSISASIILDTENESYERRVTAKNLQDPEDKTPELTIGEAIEKAFGATKKDGLLYFNDIPIDESCVELIFDDNTANKIKDSLKTLSDKKIYNVKLERGMNILIKTPTYFTNFDDYNNYPSTWSNVNTTNQDGLQGSANKLNGETKIKIPMSELKPYKRYVFSGYSKDPLTSNSIIVKIKAKEEKTDYLVPEQGYTKFSYEFETTEKDSSNIEITLIGSGTTYLDNLSITELNSTPEILDEPEVKIPTDQEIMDAHKIYFADLNFNPSTGNTYINGMYFAPTQTNKEALDYIQKYRVEATLQYSGFKDIGTKDKEMRNYLGDPNQPKTNYVNLRSYFTGGENIMTYKKLRIYAITPDDRELLVLSVD
notes: CDTb, Clostridioides difficile, UniProt O32739; cloned as amino acids 40-876 (without signal peptide); domains after cleavage are printed as 1' (W214-A296, domain 1 without the pro-peptide) to 4 (T617-D876); Heptameric pore; also found as a di-heptamer (14 chains); also called WT CDTb; NSS-loop
stoichiometry N [14]: 14 and 7

B2: CDTb F774G mutant (chymotrypsin-activated oligomer) (complex)
chain: WEDEDLDTDNDNIPDSYERNGYTIKDLIAVKWEDSFAEQGYKKYVSNYLESNTAGDPYTDYEKASGSFDKAIKTEARDPLVAAYPIVGVGMEKLIISTNEHASTDQGKTVSRATTNSKTESNTAGVSVNVGYQNGFTANVTTNYSHTTDNSTAVQDSNGESWNTGLSINKGESAYINANVRYYNTGTAPMYKVTPTTNLVLDGDTLSTIKAQENQIGNNLSPGDTYPKKGLSPLALNTMDQFSSRLIPINYDQLKKLDAGKQIKLETTQVSGNFGTKNSSGQIVTEGNSWSDYISQIDSISASIILDTENESYERRVTAKNLQDPEDKTPELTIGEAIEKAFGATKKDGLLYFNDIPIDESCVELIFDDNTANKIKDSLKTLSDKKIYNVKLERGMNILIKTPTYFTNFDDYNNYPSTWSNVNTTNQDGLQGSANKLNGETKIKIPMSELKPYKRYVFSGYSKDPLTSNSIIVKIKAKEEKTDYLVPEQGYTKFSYEFETTEKDSSNIEITLIGSGTTYLDNLSITELNSTPEILDEPEVKIPTDQEIMDAHKIYFADLNGNPSTGNTYINGMYFAPTQTNKEALDYIQKYRVEATLQYSGFKDIGTKDKEMRNYLGDPNQPKTNYVNLRSYFTGGENIMTYKKLRIYAITPDDRELLVLSVD
notes: CDTb, Clostridioides difficile, UniProt O32739; cloned as amino acids 40-876; domains after cleavage printed as W214-D876; Prepared by the same protocol as wild type, without LMNG pretreatment; source: E. coli BL21 Star (DE3), purified as wild type (Glutathione Sepharose 4B), alpha-chymotrypsin, LMNG
stoichiometry N [14]: 14 and 7

B3: CDTb F774L mutant (chymotrypsin-activated oligomer) (complex)
chain: WEDEDLDTDNDNIPDSYERNGYTIKDLIAVKWEDSFAEQGYKKYVSNYLESNTAGDPYTDYEKASGSFDKAIKTEARDPLVAAYPIVGVGMEKLIISTNEHASTDQGKTVSRATTNSKTESNTAGVSVNVGYQNGFTANVTTNYSHTTDNSTAVQDSNGESWNTGLSINKGESAYINANVRYYNTGTAPMYKVTPTTNLVLDGDTLSTIKAQENQIGNNLSPGDTYPKKGLSPLALNTMDQFSSRLIPINYDQLKKLDAGKQIKLETTQVSGNFGTKNSSGQIVTEGNSWSDYISQIDSISASIILDTENESYERRVTAKNLQDPEDKTPELTIGEAIEKAFGATKKDGLLYFNDIPIDESCVELIFDDNTANKIKDSLKTLSDKKIYNVKLERGMNILIKTPTYFTNFDDYNNYPSTWSNVNTTNQDGLQGSANKLNGETKIKIPMSELKPYKRYVFSGYSKDPLTSNSIIVKIKAKEEKTDYLVPEQGYTKFSYEFETTEKDSSNIEITLIGSGTTYLDNLSITELNSTPEILDEPEVKIPTDQEIMDAHKIYFADLNLNPSTGNTYINGMYFAPTQTNKEALDYIQKYRVEATLQYSGFKDIGTKDKEMRNYLGDPNQPKTNYVNLRSYFTGGENIMTYKKLRIYAITPDDRELLVLSVD
notes: as for B2
stoichiometry N [14]: 14 and 7
